Reference: PMC7479153, “GFP fluorescence tagging alters dynamin-related protein 1 oligomerization dynamics and creates disassembly-refractory puncta to mediate mitochondrial fission” (Scientific Reports, 2020)

B1: mEGFP-Drp1 (N-terminally mEGFP-tagged Drp1 isoform 3), recombinant from E. coli (natural protein, human, UniProt O00429-4 1-699, looked up)
chain: MEALIPVINKLQDVFNTVGADIIQLPQIVVVGTQSSGKSSVLESLVGRDLLPRGTGIVTRRPLILQLVHVSQEDKRKTTGEENGVEAEEWGKFLHTKNKLYTDFDEIRQEIENETERISGNNKGVSPEPIHLKIFSPNVVNLTLVDLPGMTKVPVGDQPKDIELQIRELILRFISNPNSIILAVTAANTDMATSEALKISREVDPDGRRTLAVITKLDLMDAGTDAMDVLMGRVIPVKLGIIGVVNRSQLDINNKKSVTDSIRDEYAFLQKKYPSLANRNGTKYLARTLNRLLMHHIRDCLPELKTRINVLAAQYQSLLNSYGEPVDDKSATLLQLITKFATEYCNTIEGTAKYIETSELCGGARICYIFHETFGRTLESVDPLGGLNTIDILTAIRNATGPRPALFVPEVSFELLVKRQIKRLEEPSLRCVELVHEEMQRIIQHCSNYSTQELLRFPKLHDAIVEVVTCLLRKRLPVTNEMVHNLVAIELAYINTKHPDFADACGLMNNNIEEQRRNRLARELPSAVSRDKVASGGGGVGDGVQEPTTGNWRGMLKTSKAEELLAEEKSKPIPIMPASPQKGHAVNLLDVPVPVARKLSAREQRDCEVIERLIKSYFLIVRKNIQDSVPKAVMHFLVNHVKDTLQSELVGQLYKSSLLDDLLTESEDMAQRRKEAADMLKALQGASQIIAEIRETHLW
notes: dynamin-related protein 1 (Drp1), human, isoform 3, printed length 699 aa; mEGFP is EGFP with A206K (also denoted A207K); fusion sub-cloned from pEGFP-C1 into pET28a; Monomer ~111 kDa as printed; source: E. coli (pET28a), purified to apparent homogeneity, then gel filtration (ENrich SEC 650); not shown: mEGFP, N-terminal, kept
B2: Drp1-mEGFP (C-terminally mEGFP-tagged Drp1 isoform 3), recombinant from E. coli (natural protein, human, UniProt O00429-4 1-699, looked up)
chain: B1 chain
B3: Drp1-wt (N-terminal 6XHis-tagged human dynamin-related protein 1, isoform 3) (natural protein, UniProt O00429-4 1-699, looked up)
chain: B1 chain
notes: dynamin-related protein 1 (Drp1), human, isoform 3, printed length 699 aa; also called unlabeled Drp1-wt; native-like His-tagged Drp1; source: E. coli, purified to apparent homogeneity, then gel filtration (ENrich SEC 650)
B4: mEGFP-Drp1 (N-terminally mEGFP-tagged Drp1 isoform 3), expressed in mammalian cells (natural protein, human, UniProt O00429-4 1-699, looked up)
chain: B1 chain
notes: dynamin-related protein 1 (Drp1), human, isoform 3, printed length 699 aa; mEGFP is EGFP with A206K; In wt MEFs and HeLa cells endogenous Drp1 is also present; also called cytosolic mEGFP-Drp1; source: wt MEFs, Drp1-null MEFs and HeLa cells, transfected (pEGFP-C1), in living cells; not shown: mEGFP, N-terminal, kept
B5: Drp1-AF488 (Drp1 labeled on surface Cys with Alexa Fluor 488 C5-maleimide) (natural protein, human, UniProt O00429-4 1-699, looked up)
chain: B1 chain
modifications: AF488 maleimide on Cys; primary targets of thiol modification are surface residues C505 and C607; ~2 mol dye/mol protein
notes: dynamin-related protein 1 (Drp1), human, isoform 3, printed length 699 aa; also called AF488-labeled Drp1; dye-labeled Drp1; source: E. coli, purified, then labeled with thiol-reactive AF488 maleimide
B6: Drp1-BODIPY FL (Drp1 labeled on surface Cys with BODIPY-FL C1-iodoacetamide) (natural protein, human, UniProt O00429-4 1-699, looked up)
chain: B1 chain
modifications: BODIPY-FL iodoacetamide on Cys; primary targets of thiol modification are surface residues C505 and C607; ~2 mol dye/mol protein
notes: dynamin-related protein 1 (Drp1), human, isoform 3, printed length 699 aa; also called BODIPY-labeled Drp1; dye-labeled Drp1; source: E. coli, purified, then labeled with thiol-reactive BODIPY-FL iodoacetamide

Columns and labels:
[1] = molecular target: the molecule itself; assay: SEC-MALS; Superose 6 10/300 GL, 20 mM HEPES pH 7.5, 150 mM KCl, 1 mM DTT; loading protein concentration varied, 500 uL injected; no nucleotide
[2] = molecular target: the molecule itself; assay: cell-based or functional assay
[3] = molecular target: the molecule itself; assay: number and brightness (N&B) analysis; living transfected wt MEFs, Drp1-null MEFs and HeLa cells, 37 C; brightness normalised to that of mEGFP alone taken as the monomer; puncta on mitochondria left out
[4] = molecular target: the molecule itself; assay: fluorescence correlation spectroscopy (single-point FCS); 0.5 uM fluorescently labeled protein in solution, 25 C, 20 mM HEPES pH 7.5, 150 mM KCl, 1 mM DTT; without and with 1 mM GMP-PCP and 1 mM MgCl2 (30 min); unlabeled Drp1-wt (1 uM final, 2X molar excess) added where it is the partner

| Protein | stoichiometry N [1] | decrease in GTP turnover (kcat) relative to Drp1-wt, basal and cardiolipin-stimulated, malachite green assay, 0.5 uM protein [2] [%] | binding result [4] | also measured |
| --- | --- | --- | --- | --- |
| B1 | ≥ 4 | > 50 |  |  |
| B2 |  | > 50 |  |  |
| B3 | ≥ 2 |  |  |  |
| B4 |  |  |  | stoichiometry N [3]: ~4 |
| B5 |  |  | binds |  |
| B6 |  |  | binds |  |
